Here are results for three molecules from US20260062488A1.

Assay [1] deals with human α4β7 integrin (human) (UniProt P13612). Nature of the assay: row IC50 (pM) HuT78 of the binning table (assay not explained, presumably adhesion to MAdCAM-1).
Assay [2] has the same target. Nature of the assay: competitive FACS, 50x excess of non-labelled competitor Ab-Etro.
The target of assay [3] is cynomolgus αEβ7 integrin (cynomolgus monkey). Nature of the assay: FACS, 1 µg/ml, BaF3-cαEβ7 cells.
In assay [4] the target is human α4β7 integrin (human) (UniProt P13612). Nature of the assay: competitive FACS, 50x excess of non-labelled competitor Ab-Abri.
Assay [5] deals with cynomolgus α4β7 integrin (cynomolgus monkey). Description: FACS, 1 µg/ml, CHOK1-cα4β7 cells.
In assay [6] the target is human α4β7 integrin (human) (UniProt P13612). Description: FACS, primary human CD4+ memory T cells.
For assay [7], the target named is human α4β1 integrin (human) (UniProt P05556). Nature of the assay: FACS, 1 µg/ml, CHOK1-hα4β1 cells.
Assay [8] addresses human α4β7 integrin (human) (UniProt P13612). Nature of the assay: competitive FACS, 50x excess of non-labelled competitor Ab-m1.
In assay [9] the target is cynomolgus α4β7 integrin (cynomolgus monkey). Nature of the assay: blockade of CHOK1-cα4β7 cell adhesion to MAdCAM-1.
For assay [10], the target named is human α4β7 integrin (human) (UniProt P13612). Description: blockade of HuT78 cell adhesion to MAdCAM-1.
The target is the same in assay [11]. Nature of the assay: competitive FACS, 50x excess of non-labelled competitor Ab-Vedo.
Assay [12] deals with mouse α4β7 integrin (mouse) (UniProt Q00651). Description: FACS, 1 µg/ml, CHOK1-mα4β7 cells.
The target in assay [13] is cynomolgus α4β7 integrin (cynomolgus monkey). Nature of the assay: blockade of CHOK1/cα4β7 adhesion to MAdCAM-1.
For assay [14], the target named is human α4β7 integrin (human) (UniProt P13612). Description: FACS titration on BaF3-hα4β7.
The target in assay [15] is human αEβ7 integrin (human) (UniProt P38570). Description: FACS, 1 µg/ml, BaF3-hαEβ7 cells.
Assay [16] addresses human α4β7 integrin (human) (UniProt P13612). Nature of the assay: FACS, 1 µg/ml, BaF3-hα4β7 cells.
The target is the same in assay [17]. Nature of the assay: blockade of HuT78 adhesion to coated VCAM-1 hFc, experiment 2.
For assay [18] the target is unchanged. Description: blockade of HuT78 adhesion to coated VCAM-1 hFc, average N = 3.
The target is the same in assay [19]. Description: blockade of HuT78 adhesion to coated VCAM-1 hFc, experiment 3.
The target is the same in assay [20]. Description: blockade of HuT78 adhesion to coated VCAM-1 hFc, experiment 1.

mouse α4β7 integrin (mouse), sequence (Q00651 41-1039, chain 1 of 2): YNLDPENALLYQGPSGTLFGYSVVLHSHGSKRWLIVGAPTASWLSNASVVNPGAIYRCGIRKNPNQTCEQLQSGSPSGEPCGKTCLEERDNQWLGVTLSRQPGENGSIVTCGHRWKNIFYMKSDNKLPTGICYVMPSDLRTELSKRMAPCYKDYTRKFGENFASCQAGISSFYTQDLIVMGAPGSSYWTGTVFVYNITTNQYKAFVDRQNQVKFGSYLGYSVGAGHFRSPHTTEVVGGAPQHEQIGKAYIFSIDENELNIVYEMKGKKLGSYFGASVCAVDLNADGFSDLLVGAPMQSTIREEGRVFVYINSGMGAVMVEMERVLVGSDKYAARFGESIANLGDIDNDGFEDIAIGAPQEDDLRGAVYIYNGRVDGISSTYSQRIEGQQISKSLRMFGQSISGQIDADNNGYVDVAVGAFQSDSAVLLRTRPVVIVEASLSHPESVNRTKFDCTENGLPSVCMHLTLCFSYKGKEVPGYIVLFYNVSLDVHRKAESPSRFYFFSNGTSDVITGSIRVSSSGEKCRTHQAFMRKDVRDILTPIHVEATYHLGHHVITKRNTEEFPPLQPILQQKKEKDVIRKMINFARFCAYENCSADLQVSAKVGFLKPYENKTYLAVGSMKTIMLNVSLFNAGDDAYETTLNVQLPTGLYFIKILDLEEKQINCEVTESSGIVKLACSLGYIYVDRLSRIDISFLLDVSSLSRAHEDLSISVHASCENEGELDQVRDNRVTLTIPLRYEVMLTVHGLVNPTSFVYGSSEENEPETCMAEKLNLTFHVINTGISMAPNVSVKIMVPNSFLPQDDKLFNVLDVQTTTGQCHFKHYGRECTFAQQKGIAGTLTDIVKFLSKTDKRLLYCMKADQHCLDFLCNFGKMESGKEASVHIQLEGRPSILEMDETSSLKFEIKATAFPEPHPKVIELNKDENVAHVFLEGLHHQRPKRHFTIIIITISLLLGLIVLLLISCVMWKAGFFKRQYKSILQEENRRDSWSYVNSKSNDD
mouse α4β7 integrin (mouse), sequence (P26011 20-806, chain 2 of 2, further chain): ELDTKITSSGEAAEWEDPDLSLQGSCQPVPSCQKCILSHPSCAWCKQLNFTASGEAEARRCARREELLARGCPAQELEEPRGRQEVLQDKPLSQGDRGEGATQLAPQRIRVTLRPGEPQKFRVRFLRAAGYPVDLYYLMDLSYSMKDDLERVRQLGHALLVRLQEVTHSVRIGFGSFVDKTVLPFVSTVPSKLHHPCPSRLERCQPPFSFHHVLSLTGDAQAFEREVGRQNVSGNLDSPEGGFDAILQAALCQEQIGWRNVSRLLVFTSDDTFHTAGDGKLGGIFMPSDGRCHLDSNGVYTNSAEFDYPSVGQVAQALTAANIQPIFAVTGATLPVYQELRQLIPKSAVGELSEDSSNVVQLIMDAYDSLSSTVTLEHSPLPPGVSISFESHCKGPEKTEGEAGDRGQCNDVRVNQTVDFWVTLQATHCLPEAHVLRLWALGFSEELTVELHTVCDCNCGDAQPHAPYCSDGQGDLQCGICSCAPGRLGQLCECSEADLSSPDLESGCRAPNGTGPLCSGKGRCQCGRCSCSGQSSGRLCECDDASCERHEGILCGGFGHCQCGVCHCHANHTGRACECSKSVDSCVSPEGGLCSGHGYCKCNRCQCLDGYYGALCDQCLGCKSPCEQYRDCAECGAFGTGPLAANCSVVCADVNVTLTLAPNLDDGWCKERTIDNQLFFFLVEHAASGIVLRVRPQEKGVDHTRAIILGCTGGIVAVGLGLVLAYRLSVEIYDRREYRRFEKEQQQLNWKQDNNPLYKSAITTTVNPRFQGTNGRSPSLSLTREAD

B1: Ab-Abri (antibody, INN chains, looked up, V domains shown)
VH: QVQLVQSGAEVKKPGASVKVSCKVSGYTLSDLSIHWVRQAPGKGLEWMGGFDPQDGETIYAQKFQGRVTMTEDTSTDTAYMELSSLKSEDTAVYYCATGSSSSWFDPWGQGTLVTVSS
VL: DIQMTQSPSSVSASVGDRVTITCRASQGISSWLAWYQQKPGKAPKLLIYGASNLESGVPSRFSGSGSGTDFTLTISSLQPEDFANYYCQQANSFPWTFGQGTKVEIK
modifications: IgG2 Alexa488 conjugate
On to B1, for which the IC50 was determined as 0.0129 nM in assay [1], 0.0994 nM in assay [9], 0.0129 nM in assay [10] and 0.0509 nM in [13]. Besides, the percentage of binding inhibition was found to be 80% in assay [2], 89% in assay [4], 73% in assay [8] and 88% in assay [11]. The FACS MFI was determined as 68.3 MFI in assay [3]; 89.8 MFI in assay [5]; 4.25 MFI in assay [7]; 2.87 MFI in assay [12]; 9.81 MFI in assay [15]; 624 MFI in assay [16]. The figures for the EC50 in [6] and in assay [14] were 4.9 pM and 0.679 nM, respectively. Further, the Max inhibition (%) in assay [9] amounted to 95.9%; in assay [10] it was 103%. The Max MFI in [14] was found to be 775 MFI.

B2: Ab-Etro (antibody, INN chains, looked up, V domains shown)
VH: EVQLVESGGGLVQPGGSLRLSCAASGFFITNNYWGWVRQAPGKGLEWVGYISYSGSTSYNPSLKSRFTISRDTSKNTFYLQMNSLRAEDTAVYYCARTGSSGYFDFWGQGTLVTVSS
VL: DIQMTQSPSSLSASVGDRVTITCRASESVDDLLHWYQQKPGKAPKLLIKYASQSISGVPSRFSGSGSGTDFTLTISSLQPEDFATYYCQQGNSLPNTFGQGTKVEIK
modifications: IgG1 Alexa488 conjugate
For the molecule B2, the IC50 in [1] worked out at 0.0178 nM; in assay [9], 0.241 nM; in assay [10], 0.0178 nM; in assay [13], 0.0499 nM. In addition, the percentage of binding inhibition is 93% in [2], 60% in assay [4], -1% in assay [8] and 6% in assay [11]. Moreover, the FACS MFI in [3] came out at 247 MFI; in assay [5] it was 97.2 MFI; in assay [7], 4.53 MFI; in [12] it was 92.2 MFI; in assay [15], 73.2 MFI; in assay [16] it was 440 MFI. In addition, the figures for the EC50 in assay [6] and in assay [14] were 5.4 pM and 0.705 nM, respectively. Besides, the figures for the Max inhibition (%) in [9] and in assay [10] were 91.5% and 104%, respectively. In assay [14], this molecule showed a Max MFI of 951 MFI.

B3: Ab-Nata (antibody, INN chains, looked up, V domains shown)
VH: QVQLVQSGAEVKKPGASVKVSCKASGFNIKDTYIHWVRQAPGQRLEWMGRIDPANGYTKYDPKFQGRVTITADTSASTAYMELSSLRSEDTAVYYCAREGYYGNYGVYAMDYWGQGTLVTVSS
VL: DIQMTQSPSSLSASVGDRVTITCKTSQDINKYMAWYQQTPGKAPRLLIHYTSALQPGIPSRFSGSGSGRDYTFTISSLQPEDIATYYCLQYDNLWTFGQGTKVEIKR
As to B3, the IC50 in [17] worked out at 0.054 nM; in [18] it was 0.056 nM; in [19], 0.077 nM; in [20] it was 0.038 nM.
